Biological target: Human IL-12 receptor (human IL-12Rb1 and IL-12Rb2) (human) (UniProt P42701)
Sequence (Q99665 24-862, chain 2 of 2, other chains not shown): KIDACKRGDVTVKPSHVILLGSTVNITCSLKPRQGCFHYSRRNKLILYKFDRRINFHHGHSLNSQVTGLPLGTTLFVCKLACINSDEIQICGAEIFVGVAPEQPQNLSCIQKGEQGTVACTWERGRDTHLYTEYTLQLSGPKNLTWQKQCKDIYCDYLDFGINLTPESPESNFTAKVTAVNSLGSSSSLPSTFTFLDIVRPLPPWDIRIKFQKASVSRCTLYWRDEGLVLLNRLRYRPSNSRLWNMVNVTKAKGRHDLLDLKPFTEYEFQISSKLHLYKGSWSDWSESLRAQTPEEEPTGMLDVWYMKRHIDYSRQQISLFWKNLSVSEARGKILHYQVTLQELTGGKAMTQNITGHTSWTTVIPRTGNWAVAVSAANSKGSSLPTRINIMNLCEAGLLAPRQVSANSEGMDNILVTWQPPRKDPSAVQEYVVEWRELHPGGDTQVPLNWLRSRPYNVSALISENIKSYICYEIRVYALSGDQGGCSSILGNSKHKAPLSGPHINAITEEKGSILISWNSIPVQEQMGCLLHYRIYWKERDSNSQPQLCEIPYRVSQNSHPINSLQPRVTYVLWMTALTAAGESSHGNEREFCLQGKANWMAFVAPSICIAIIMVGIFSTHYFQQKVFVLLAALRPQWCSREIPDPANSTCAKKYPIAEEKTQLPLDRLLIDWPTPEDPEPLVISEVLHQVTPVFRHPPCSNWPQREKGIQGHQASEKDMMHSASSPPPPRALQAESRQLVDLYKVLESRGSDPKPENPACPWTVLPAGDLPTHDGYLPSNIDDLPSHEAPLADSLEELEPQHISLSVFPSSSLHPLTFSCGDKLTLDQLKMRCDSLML

Chain of rhIL-12 (P29460 23-328 limits assumed): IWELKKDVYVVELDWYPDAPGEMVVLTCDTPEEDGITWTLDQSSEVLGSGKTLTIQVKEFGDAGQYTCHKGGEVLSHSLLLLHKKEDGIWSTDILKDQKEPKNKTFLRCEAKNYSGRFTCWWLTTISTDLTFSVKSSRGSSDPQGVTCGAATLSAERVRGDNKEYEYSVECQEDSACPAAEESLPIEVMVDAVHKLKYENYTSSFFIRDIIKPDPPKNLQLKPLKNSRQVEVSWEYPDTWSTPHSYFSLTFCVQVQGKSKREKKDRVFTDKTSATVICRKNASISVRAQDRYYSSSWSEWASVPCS
Chain of rhIL-12 (P29459 23-219 limits assumed): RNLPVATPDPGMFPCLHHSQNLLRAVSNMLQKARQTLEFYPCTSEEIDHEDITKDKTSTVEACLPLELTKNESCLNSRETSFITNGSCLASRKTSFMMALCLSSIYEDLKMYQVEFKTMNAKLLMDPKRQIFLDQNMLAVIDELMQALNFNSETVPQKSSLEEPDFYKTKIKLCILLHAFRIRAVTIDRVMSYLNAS

rhIL-12 (from UniProt P29460 23-328; P29459 23-219) (ligand)
EC50 (read off the curve), IL-12 luciferase reporter assay (+ Protease): 0.2 nM | EC50 (read off the curve), IL-12 luciferase reporter assay (without protease): 0.2 nM

Source: patent publication US20240270806A1
